Reference: publication PMC9584538 (Cell reports, 2022)
Where “and” joins values, the source holds several entries; their conditions need not be identical. Equal values may be shown once. Read-outs that look alike come from different tables or passages of the source. Values belong to the molecule of their own block, whether it stands above or below them.

Columns and labels:
_(PARL)Skd3^NBD (human) = test: cryo-EM structure
[1] = target: _(PARL)Skd3^Δ1-2 (ankyrin repeats 1 and 2 deleted, ΔY127-G196) (human); test: SEC
[2] = target: _(PARL)Skd3^Δ1-2 (ankyrin repeats 1 and 2 deleted, ΔY127-G196) (human); test: cryo-EM structure
PARLSkd3 (human CLPB) = target: T1, PARLSkd3 (human CLPB) (Homo sapiens, UniProt Q9H078); assay type: biochemical
T1 sequence (Q9H078 127-707): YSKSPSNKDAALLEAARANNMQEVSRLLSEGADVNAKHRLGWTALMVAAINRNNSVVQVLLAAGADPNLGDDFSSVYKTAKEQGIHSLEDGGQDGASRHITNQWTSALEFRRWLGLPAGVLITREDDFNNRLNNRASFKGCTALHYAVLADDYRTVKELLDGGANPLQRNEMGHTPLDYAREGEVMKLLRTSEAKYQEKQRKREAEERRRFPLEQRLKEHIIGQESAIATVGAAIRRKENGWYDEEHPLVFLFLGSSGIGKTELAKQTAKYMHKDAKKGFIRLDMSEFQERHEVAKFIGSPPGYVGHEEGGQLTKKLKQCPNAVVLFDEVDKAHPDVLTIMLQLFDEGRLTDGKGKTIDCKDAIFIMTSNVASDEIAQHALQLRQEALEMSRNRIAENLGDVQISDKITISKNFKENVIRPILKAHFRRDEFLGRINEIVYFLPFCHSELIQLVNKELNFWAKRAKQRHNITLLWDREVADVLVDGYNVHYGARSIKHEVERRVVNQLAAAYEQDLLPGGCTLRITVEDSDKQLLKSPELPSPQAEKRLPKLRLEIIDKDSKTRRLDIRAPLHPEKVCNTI

SEC = target: the molecule itself; test: SEC
[3] = target: the molecule itself
[4] = target: Casein fluorescein isothiocyanate from bovine milk (FITC-casein) (bovine); test: fluorescence polarisation
Casein fluorescein isothiocyanate from bovine milk (FITC-casein) (bovine), sequence (P02662 16-214): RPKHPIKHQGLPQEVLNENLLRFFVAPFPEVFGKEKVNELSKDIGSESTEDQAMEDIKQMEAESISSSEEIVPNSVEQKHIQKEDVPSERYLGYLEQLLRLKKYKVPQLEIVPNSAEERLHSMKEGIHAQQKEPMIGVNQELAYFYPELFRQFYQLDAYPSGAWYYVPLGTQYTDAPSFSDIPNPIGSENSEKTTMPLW

[5] = target: Casein fluorescein isothiocyanate from bovine milk (FITC-casein) (bovine); test: fluorescence polarisation; remark: listed apart in the source
[6] = target: Casein fluorescein isothiocyanate from bovine milk (FITC-casein) (bovine); test: fluorescence polarisation; remark: listed apart in the source

Molecule: Nc1ncnc2c1ncn2[C@@H]1O[C@H](COP(=O)(O)OP(=O)(O)O)[C@@H](O)[C@H]1O [ADP]
- IC50 (PARLSkd3 (human CLPB)): ~1200 µM

B1: _(PARL)Skd3^ΔL507-I534 (NBD insertion deleted) (enzyme, human, UniProt Q9H078 127-707, looked up)
chain: YSKSPSNKDAALLEAARANNMQEVSRLLSEGADVNAKHRLGWTALMVAAINRNNSVVQVLLAAGADPNLGDDFSSVYKTAKEQGIHSLEDGGQDGASRHITNQWTSALEFRRWLGLPAGVLITREDDFNNRLNNRASFKGCTALHYAVLADDYRTVKELLDGGANPLQRNEMGHTPLDYAREGEVMKLLRTSEAKYQEKQRKREAEERRRFPLEQRLKEHIIGQESAIATVGAAIRRKENGWYDEEHPLVFLFLGSSGIGKTELAKQTAKYMHKDAKKGFIRLDMSEFQERHEVAKFIGSPPGYVGHEEGGQLTKKLKQCPNAVVLFDEVDKAHPDVLTIMLQLFDEGRLTDGKGKTIDCKDAIFIMTSNVASDEIAQHATISKNFKENVIRPILKAHFRRDEFLGRINEIVYFLPFCHSELIQLVNKELNFWAKRAKQRHNITLLWDREVADVLVDGYNVHYGARSIKHEVERRVVNQLAAAYEQDLLPGGCTLRITVEDSDKQLLKSPELPSPQAEKRLPKLRLEIIDKDSKTRRLDIRAPLHPEKVCNTI
- stoichiometry N (SEC): 12

B2: _(PARL)Skd3^ΔL660-I707 (lacking the CTD) (enzyme, human, UniProt Q9H078 127-707, looked up)
chain: YSKSPSNKDAALLEAARANNMQEVSRLLSEGADVNAKHRLGWTALMVAAINRNNSVVQVLLAAGADPNLGDDFSSVYKTAKEQGIHSLEDGGQDGASRHITNQWTSALEFRRWLGLPAGVLITREDDFNNRLNNRASFKGCTALHYAVLADDYRTVKELLDGGANPLQRNEMGHTPLDYAREGEVMKLLRTSEAKYQEKQRKREAEERRRFPLEQRLKEHIIGQESAIATVGAAIRRKENGWYDEEHPLVFLFLGSSGIGKTELAKQTAKYMHKDAKKGFIRLDMSEFQERHEVAKFIGSPPGYVGHEEGGQLTKKLKQCPNAVVLFDEVDKAHPDVLTIMLQLFDEGRLTDGKGKTIDCKDAIFIMTSNVASDEIAQHALQLRQEALEMSRNRIAENLGDVQISDKITISKNFKENVIRPILKAHFRRDEFLGRINEIVYFLPFCHSELIQLVNKELNFWAKRAKQRHNITLLWDREVADVLVDGYNVHYGARSIKHEVERRVVNQLAAAYEQDLLPGGCTLRITVEDSDKQ
- stoichiometry N [3]: 6 and 12

Other lines, results leading:

- stoichiometry N (_(PARL)Skd3^NBD (human)): 6
Molecule: _(PARL)Skd3^NBD (domain or fragment)

- stoichiometry N [1]: 12
- stoichiometry N [2]: 18
Molecule: _(PARL)Skd3^Δ1-2 (ankyrin repeats 1 and 2 deleted, ΔY127-G196) (enzyme)

- IC50 (PARLSkd3 (human CLPB)): ~242 µM
Molecule: Nc1ncnc2c1ncn2[C@@H]1O[C@H](CO[P@](=O)(O)O[P@](=O)(O)O[P@@](=O)(O)S)[C@@H](O)[C@H]1O [ATPγS]

- Kd [4]: 0.5 µM
- Kd [5]: 0.1 µM
- Kd [6]: 0.4 µM
B3: PARL-protease-activated Skd3 (human CLPB), wild type (enzyme)
chain: T1 sequence (Q9H078 127-707)
